{
  "source": "patent US20250170255A1",
  "about": "(Daiichi Sankyo, published 2025)",
  "binders": {"B1": {"name": "anti-TROP2 masked antibody MHT1009 (antibody)", "heavy": "not shown", "light": "DIQMTQSPSSLSASVGDRVTITCKASQDVSTAVAWYQQKPGKAPKLLIYSASYRYTGVPSRFSGSGSGTDFTLTISSLQPEDFAVYYCQQHYITPLTFGQGTKLEIKRTVAAPSVFIFPPSDEQLKSGTASVVCLLNNFYPREAKVQWKVDNALQSGNSQESVTEQDSKDSTYSLSSTLTLSKADYEKHKVYACEVTHQGLSSPVTKSFNRGEC", "notes": "Full-length entries"}, "B2": {"name": "anti-TROP2 masked antibody MHT1808 (antibody)", "heavy": "not shown", "light": "B1 light", "notes": "His cluster linker; Full-length entries"}, "B3": {"name": "HT1-11-scFv-HL (scFv)", "scFv": "ADVNSQVQLVQSGAEVKKPGASVKVSCKASGYTFTTAGMQWVRQAPGQGLEWMGWINTHSGVPKYAEDFKGRVTISADTSTSTAYLQLSSLKSEDTAVYYCARSGFGSSYWYFDVWGQGTLVTVSSGGGGSGGGGSGGGGSDIQMTQSPSSLSASVGDRVTITCKASQDVSTAVAWYQQKPGKAPKLLIYSASYRYTGVPSRFSGSGSGTDFTLTISSLQPEDFAVYYCQQHYITPLTFGQGTKLEIKRGAPSGDYKDDDDKGAAAHHHHHH", "notes": "Unmasked scFv (VH-VL) expressed in E. coli, purified by Ni Sepharose; Full-length entry"}, "B4": {"name": "HT1-11-scFv-LH (scFv)", "scFv": "ADVNSDIQMTQSPSSLSASVGDRVTITCKASQDVSTAVAWYQQKPGKAPKLLIYSASYRYTGVPSRFSGSGSGTDFTLTISSLQPEDFAVYYCQQHYITPLTFGQGTKLEIKRGGGGSGGGGSGGGGSQVQLVQSGAEVKKPGASVKVSCKASGYTFTTAGMQWVRQAPGQGLEWMGWINTHSGVPKYAEDFKGRVTISADTSTSTAYLQLSSLKSEDTAVYYCARSGFGSSYWYFDVWGQGTLVTVSSGAPSGDYKDDDDKGAAAHHHHHH", "notes": "Unmasked scFv (VL-VH) expressed in E. coli; Full-length entry"}},
  "key": {"[1]": {"target": "T1, biotinylated human TROP2 antigen (human, UniProt P09758 27-274, C-terminal Avi tag sequence biotinylated)", "T1 construct": "extracellular domain", "T1 sequence (looked up)": "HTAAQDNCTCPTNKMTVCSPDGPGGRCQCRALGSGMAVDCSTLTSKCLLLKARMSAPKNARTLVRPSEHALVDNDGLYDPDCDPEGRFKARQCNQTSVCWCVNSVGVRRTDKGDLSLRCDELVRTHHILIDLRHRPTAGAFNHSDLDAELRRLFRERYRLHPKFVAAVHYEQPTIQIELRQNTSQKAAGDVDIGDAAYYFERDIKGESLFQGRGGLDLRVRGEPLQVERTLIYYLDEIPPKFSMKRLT", "assay": "ELISA, immobilised biotinylated human TROP2 antigen, chemiluminescence; without uPA", "method": "(§1) NeutrAvidin (Thermo Fisher Scientific) diluted to 1 μg/ml with PBS was added at 50 μl/well to a 96-well Maxi-sorp plate (Black, Nunc) and immobilized at 4° C. overnight. The plate was washed with PBS containing 0.05% (w/v) Tween-20 (BioRad) (ELISA buffer) and then blocked with Blocker Casein (Thermo Fisher Scientific). The plate was washed with ELISA buffer, the biotinylated human TROP2 antigen (Accession Number: P09758; the extracellular domain was purified by the method known to a person skilled in the art and the C-terminal Avi tag sequence was then biotinylated) diluted to 1 μg/ml with PBS was added at 50 μl/well, and the resultant was then agitated for 30 minutes at room temperature. […] The plate was washed with ELISA buffer, 50 μl of the horseradish peroxidase (HRP)-labeled anti-human IgG antibody (Jackson Immuno Research Laboratories) diluted to 2,500-fold with ELISA buffer was added, and the resultant was then agitated for 30 minutes at room temperature. The plate was washed with ELISA buffer, the SuperSignal Pico ELISA chemiluminescent substrate (Thermo Fisher Scientific) was added, and chemiluminescence 10 minutes thereafter was then assayed using a plate reader."}, "[2]": {"target": "T1, biotinylated human TROP2 antigen", "assay": "ELISA, immobilised biotinylated human TROP2 antigen, chemiluminescence; after uPA pre-treatment (mask linker cleaved)", "method": "as §1"}, "[3]": {"target": "T1, biotinylated human TROP2 antigen", "assay": "ELISA with and without uPA"}, "[4]": {"target": "T1, biotinylated human TROP2 antigen", "assay": "ELISA, immobilised biotinylated human TROP2 antigen, chemiluminescence; pH 5.5", "method": "(§2) The plate was washed with PBS containing 0.05% (w/v) Tween-20 (BioRad) (ELISA buffer) and then blocked with Blocker Casein (Thermo Fisher Scientific). The plate was washed with ELISA buffer, the biotinylated human TROP2 antigen (Accession Number: P09758; the extracellular domain was purified by the method known to a person skilled in the art and the C-terminal Avi tag sequence was then biotinylated) diluted to 1 μg/ml with PBS was added at 50 μl/well, and the resultant was then agitated for 30 minutes at room temperature. […] The plate was washed with ELISA buffer, 50 μl of the horseradish peroxidase (HRP)-labeled anti-human IgG antibody (Jackson Immuno Research Laboratories) diluted to 2,500-fold with ELISA buffer was added, and the resultant was then agitated for 30 minutes at room temperature. The plate was washed with ELISA buffer, the SuperSignal Pico ELISA chemiluminescent substrate (Thermo Fisher Scientific) was added, and chemiluminescence 10 minutes thereafter was then assayed using a plate reader. […]"}, "[5]": {"target": "T1, biotinylated human TROP2 antigen", "assay": "ELISA, immobilised biotinylated human TROP2 antigen, chemiluminescence; pH 5.5", "remark": "listed apart in the source"}, "[6]": {"target": "T1, biotinylated human TROP2 antigen", "assay": "ELISA, immobilised biotinylated human TROP2 antigen, chemiluminescence; pH 7.5", "method": "as §2"}, "[7]": {"target": "T1, biotinylated human TROP2 antigen", "assay": "ELISA, immobilised biotinylated human TROP2 antigen, chemiluminescence; pH 5.5", "remark": "listed apart in the source", "method": "as §2"}, "[8]": {"target": "T1, biotinylated human TROP2 antigen", "assay": "ELISA, immobilised biotinylated human TROP2 antigen, chemiluminescence; pH 7.5", "remark": "listed apart in the source"}, "[9]": {"target": "T1, biotinylated human TROP2 antigen", "assay": "ELISA, immobilised biotinylated human TROP2 antigen, chemiluminescence; pH 6.0"}, "[10]": {"target": "T1, biotinylated human TROP2 antigen", "assay": "ELISA, immobilised biotinylated human TROP2 antigen, chemiluminescence; pH 7.5", "remark": "listed apart in the source"}, "[11]": {"target": "T1, biotinylated human TROP2 antigen", "assay": "ELISA, immobilised biotinylated human TROP2 antigen, anti-FLAG-HRP detection; after MMP1 pre-treatment", "method": "(§3) NeutrAvidin (Thermo Fisher Scientific) diluted to 1 μg/ml with PBS was added at 50 μl/well to a 96-well Maxi-sorp plate (Black, Nunc) and immobilized at 4° C. overnight. The plate was washed with PBS containing 0.05% (w/v) Tween-20 (BioRad) (ELISA buffer) and then blocked with Blocker Casein (Thermo Fisher Scientific). The plate was washed with ELISA buffer, the biotinylated human TROP2 antigen (Accession Number: P09758; the extracellular domain was purified by the method known to a person skilled in the art and the C-terminal Avi tag sequence was then biotinylated) diluted to 1 μg/ml with PBS was added at 50 μl/well, and the resultant was then agitated for 30 minutes at room temperature. […] The plate was washed with ELISA buffer, the SuperSignal Pico ELISA chemiluminescent substrate (Thermo Fisher Scientific) was added, and chemiluminescence 10 minutes thereafter was then assayed using a plate reader.\n(§4) The resultant was then added to the plate comprising the human TROP2 antigen immobilized thereon at 50 μl/well. The bound scFv was detected using the HRP-labeled anti-FLAG antibody (Sigma-Aldrich) diluted to 5,000-fold with ELISA buffer."}, "[12]": {"target": "T1, biotinylated human TROP2 antigen", "assay": "ELISA, immobilised biotinylated human TROP2 antigen, anti-FLAG-HRP detection; without MMP1", "method": "as §3, §4"}, "[13]": {"target": "T1, biotinylated human TROP2 antigen", "assay": "ELISA, immobilised biotinylated human TROP2 antigen, anti-FLAG-HRP detection; after MMP1 pre-treatment", "remark": "listed apart in the source", "method": "as §3, §4"}, "[14]": {"target": "T1, biotinylated human TROP2 antigen", "assay": "ELISA, immobilised biotinylated human TROP2 antigen, anti-FLAG-HRP detection; without MMP1", "remark": "listed apart in the source", "method": "as §3, §4"}},
  "data": [
    {"binder": "B1", "values": [
      {"measurement": "EC50 (read off the curve)", "setting": "[1]", "value": "~90", "unit": "nM"},
      {"measurement": "EC50 (read off the curve)", "setting": "[2]", "value": "~1", "unit": "nM"},
      {"measurement": "EC50 ratio of binding intensity (without uPA / with uPA)", "setting": "[3]", "value": 83}
    ]},
    {"binder": "B2", "values": [
      {"measurement": "EC50 (read off the curve)", "setting": "[4]", "value": "~2", "unit": "nM"},
      {"measurement": "EC50 (read off the curve)", "setting": "[5]", "value": "~1", "unit": "nM"},
      {"measurement": "EC50 (read off the curve)", "setting": "[6]", "value": "~50", "unit": "nM"},
      {"measurement": "EC50 (read off the curve)", "setting": "[7]", "value": "~1", "unit": "nM"},
      {"measurement": "EC50 (read off the curve)", "setting": "[8]", "value": "~30", "unit": "nM"},
      {"measurement": "EC50 (read off the curve)", "setting": "[9]", "value": "~4", "unit": "nM"},
      {"measurement": "EC50 (read off the curve)", "setting": "[10]", "value": "~20", "unit": "nM"}
    ]},
    {"binder": "B3", "values": [
      {"measurement": "EC50 (read off the curve)", "setting": "[11]", "value": "~5", "unit": "nM"},
      {"measurement": "EC50 (read off the curve)", "setting": "[12]", "value": "~5", "unit": "nM"}
    ]},
    {"binder": "B4", "values": [
      {"measurement": "EC50 (read off the curve)", "setting": "[13]", "value": "~3", "unit": "nM"},
      {"measurement": "EC50 (read off the curve)", "setting": "[14]", "value": "~3", "unit": "nM"}
    ]}
  ]
}
